Ends that are not written are not given here. * marks the point of attachment. Biotin = O=C1N[C@H]2[C@H](CS[C@H]2CCCCC(=O)*)N1

The values below come from US20230295344A1 (published 2023).

Holding throughout (assay): labelled AK1967 on biotinylated peptide on avidin plate, chemiluminescence
Assay [1] has as its target T1, epitope mapping peptide #12.
T1 construct: final K stands where DPP3 has R
T1 peptide: PETGEQIQSWYK(Biotin)
The procedure: (§1) These peptides include the sequence of the full immunization peptide (SEQ ID No. 2) or fragments thereof, with stepwise removal of one amino acid from either C- or N-terminus (see table 5 for a complete list of peptides).
(§2) High binding 96 well plates were coated with 2 µg Avidin per well (Greiner Bio-One international AG, Austria) in coupling buffer (500 mM Tris-HCl, pH 7.8, 100 mM NaCl). Afterwards plate were washed and filled with specific solutions of biotinylated peptides (10 ng/ well; buffer – 1xPBS with 0.5% BSA)
(§3) The plates were filled with 200 µl of labeled and diluted detection antibody (tracer) and incubated for 4 h at room temperature. Unbound tracer was removed by washing 4 times with 350 µl washing solution (20 mM PBS, pH 7.4, 0.1 % Triton X-100). Well-bound chemiluminescence was measured by using the Centro LB 960 luminometer (Berthold Technologies GmbH & Co. KG).

The target in assay [2] is T2, epitope mapping peptide #16.
T2 construct: final K stands where DPP3 has R
T2 peptide: TVINPETGEQIQSWYK(Biotin)
As for the experimental part: as §1, §2, §3

Assay [3] concerns the target T3, epitope mapping peptide #11.
T3 construct: final K stands where DPP3 has R
T3 peptide: ETGEQIQSWYK(Biotin)
As for the experimental part: as §1, §2, §3

Assay [4] concerns the target T4, epitope mapping peptide #2.
T4 peptide: Biotin-AFNFDQETVINPETGEQIQ
As for the experimental part: as §1, §2, §3

The target of assay [5] is T5, epitope mapping peptide #6.
T5 peptide: Biotin-AFNFDQETVINPETG
As for the experimental part: as §1, §2, §3

Assay [6] concerns the target T6, epitope mapping peptide #15.
T6 construct: final K stands where DPP3 has R
T6 peptide: VINPETGEQIQSWYK(Biotin)
As for the experimental part: as §1, §2, §3

The target in assay [7] is T7, epitope mapping peptide #5.
T7 peptide: Biotin-AFNFDQETVINPETGE
As for the experimental part:
as §1, §2, §3

Assay [8] concerns the target T8, epitope mapping peptide #4.
T8 peptide: Biotin-AFNFDQETVINPETGEQ
As for the experimental part:
as §1, §2, §3

The target in assay [9] is T9, epitope mapping peptide #13.
T9 construct: final K stands where DPP3 has R
T9 peptide: NPETGEQIQSWYK(Biotin)
The procedure:
as §1, §2, §3

For assay [10], the target named is T10, epitope mapping peptide #3.
T10 peptide: Biotin-AFNFDQETVINPETGEQI
The procedure:
as §1, §2, §3

Assay [11] has as its target T11, epitope mapping peptide #14.
T11 construct: final K stands where DPP3 has R
T11 peptide: INPETGEQIQSWYK(Biotin)
The procedure: as §1, §2, §3

Assay [12] concerns the target T12, epitope mapping peptide #17.
T12 construct: final K stands where DPP3 has R
T12 peptide: ETVINPETGEQIQSWYK(Biotin)
The procedure:
as §1, §2, §3

Assay [13] concerns the target T13, epitope mapping peptide #9.
T13 peptide: Biotin-AFNFDQETVINP
The procedure: as §1, §2, §3

Assay [14] addresses T14, epitope mapping peptide #8.
T14 peptide: Biotin-AFNFDQETVINPE
The procedure: as §1, §2, §3

The target of assay [15] is T15, epitope mapping peptide #1 (N-terminal biotin).
T15 peptide: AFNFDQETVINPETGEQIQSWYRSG
The procedure: as §1, §2, §3

For assay [16], the target named is T16, epitope mapping peptide #10.
T16 peptide: Biotin-AFNFDQETVIN
As for the experimental part:
as §1, §2, §3

B1: murine monoclonal anti-DPP3 antibody AK1967 (clone 1967) (antibody, V domains shown)
VH: QVTLKESGPGILQPSQTLSLTCSFSGFSLSTSGMSVGWIRQPSGKGLEWLAHIWWNDNKSYNPALKSRLTISRDTSNNQVFLKIASVVTADTGTYFCARNYSYDYWGQGTTLTVSS
VL: DVVVTQTPLSLSVSLGDPASISCRSSRSLVHSIGSTYLHWYLQKPGQSPKLLIYKVSNRFSGVPDRFSGSGSGTDFTLKISRVEAEDLGVYFCSQSTHVPWTFGGGTKLEIK
notes: Acridinium-labelled in the plate assays
With B1, the binding result in assay [1] is listed as “no binding”; in [2], “binds”; in [3], “no binding”; in [4] it was “binds”; in assay [5], “binds”; in assay [6] it was “binds”. Moreover, the binding result in assay [7] was “binds”; in [8] it was “binds”; in assay [9] it was “no binding”; in [10], “binds”; in assay [11] it was “binds”; in [12], “binds”. Also, the binding result in assay [13] was “no binding”; in assay [14] it was “no binding”; in assay [15], “binds”; in [16] it was “no binding”.
